According to ChEMBL document CHEMBL1155741, “Ellagitannins and hexahydroxydiphenoyl esters as inhibitors of vertebrate squalene epoxidase” (J Nat Prod, 2001):

Substrate: CC(C)=CCC/C(C)=C/CC/C(C)=C/CC/C=C(\C)CC/C=C(\C)CCC=C(C)C
Test: Activity of C-terminal hexahistidine-tagged rat recombinant squalene epoxidase without N-terminal putative membrane domain expressed in Escherichia coli

B1: Squalene monooxygenase (Rattus norvegicus), P52020 (protein)
chain: MWTFLGIATFTYFYKKCGDVTLANKELLLCVLVFLSLGLVLSYRCRHRNGGLLGRHQSGSQFAAFSDILSALPLIGFFWAKSPPESEKKEQLESKRRRKEVNLSETTLTGAATSVSTSSVTDPEVIIIGSGVLGSALATVLSRDGRTVTVIERDLKEPDRILGECLQPGGYRVLRELGLGDTVESLNAHHIHGYVIHDCESRSEVQIPYPVSENNQVQSGVAFHHGKFIMSLRKAAMAEPNVKFIEGVVLRLLEEDDAVIGVQYKDKETGDTKELHAPLTVVADGLFSKFRKNLISNKVSVSSHFVGFIMKDAPQFKANFAELVLVDPSPVLIYQISPSETRVLVDIRGELPRNLREYMTEQIYPQIPDHLKESFLEACQNARLRTMPASFLPPSSVNKRGVLLLGDAYNLRHPLTGGGMTVALKDIKIWRQLLKDIPDLYDDAAIFQAKKSFFWSRKRSHSFVVNVLAQALYELFSATDDSLRQLRKACFLYFKLGGECLTGPVGLLSILSPDPLLLIRHFFSVAVYATYFCFKSEPWATKPRALFSSGAILYKACSIIFPLIYSEMKYLVH
Km: 3.8 µM
kcat: 0.0683 s⁻¹
